Source: publication PMC9780223, “Structural insights into the covalent regulation of PAPP-A activity by proMBP and STC2” (Cell Discovery, 2022)

B1: pregnancy-associated plasma protein A (PAPP-A), endogenous, from pregnant human plasma (enzyme, human (endogenous in pregnant plasma), UniProt Q13219 82-1627, looked up)
chain: EARGATEEPSPPSRALYFSGRGEQLRLRADLELPRDAFTLQVWLRAEGGQRSPAVITGLYDKCSYISRDRGWVVGIHTISDQDNKDPRYFFSLKTDRARQVTTINAHRSYLPGQWVYLAATYDGQFMKLYVNGAQVATSGEQVGGIFSPLTQKCKVLMLGGSALNHNYRGYIEHFSLWKVARTQREILSDMETHGAHTALPQLLLQENWDNVKHAWSPMKDGSSPKVEFSNAHGFLLDTSLEPPLCGQTLCDNTEVIASYNQLSSFRQPKVVRYRVVNLYEDDHKNPTVTREQVDFQHHQLAEAFKQYNISWELDVLEVSNSSLRRRLILANCDISKIGDENCDPECNHTLTGHDGGDCRHLRHPAFVKKQHNGVCDMDCNYERFNFDGGECCDPEITNVTQTCFDPDSPHRAYLDVNELKNILKLDGSTHLNIFFAKSSEEELAGVATWPWDKEALMHLGGIVLNPSFYGMPGHTHTMIHEIGHSLGLYHVFRGISEIQSCSDPCMETEPSFETGDLCNDTNPAPKHKSCGDPGPGNDTCGFHSFFNTPYNNFMSYADDDCTDSFTPNQVARMHCYLDLVYQGWQPSRKPAPVALAPQVLGHTTDSVTLEWFPPIDGHFFERELGSACHLCLEGRILVQYASNASSPMPCSPSGHWSPREAEGHPDVEQPCKSSVRTWSPNSAVNPHTVPPACPEPQGCYLELEFLYPLVPESLTIWVTFVSTDWDSSGAVNDIKLLAVSGKNISLGPQNVFCDVPLTIRLWDVGEEVYGIQIYTLDEHLEIDAAMLTSTADTPLCLQCKPLKYKVVRDPPLQMDVASILHLNRKFVDMDLNLGSVYQYWVITISGTEESEPSPAVTYIHGSGYCGDGIIQKDQGEQCDDMNKINGDGCSLFCRQEVSFNCIDEPSRCYFHDGDGVCEEFEQKTSIKDCGVYTPQGFLDQWASNASVSHQDQQCPGWVIIGQPAASQVCRTKVIDLSEGISQHAWYPCTISYPYSQLAQTTFWLRAYFSQPMVAAAVIVHLVTDGTYYGDQKQETISVQLLDTKDQSHDLGLHVLSCRNNPLIIPVVHDLSQPFYHSQAVRVSFSSPLVAISGVALRSFDNFDPVTLSSCQRGETYSPAEQSCVHFACEKTDCPELAVENASLNCSSSDRYHGAQCTVSCRTGYVLQIRRDDELIKSQTGPSVTVTCTEGKWNKQVACEPVDCSIPDHHQVYAASFSCPEGTTFGSQCSFQCRHPAQLKGNNSLLTCMEDGLWSFPEALCELMCLAPPPVPNADLQTARCRENKHKVGSFCKYKCKPGYHVPGSSRKSKKRAFKTQCTQDGSWQEGACVPVTCDPPPPKFHGLYQCTNGFQFNSECRIKCEDSDASQGLGSNVIHCRKDGTWNGSFHVCQEMQGQCSVPNELNSNLKLQCPDGYAIGSECATSCLDHNSESIILPMNVTVRDIPHWLNPTRVERVVCTAGLKWYPHPALIHCVKGCEPFMGDNYCDAINNRAFCNYDGGDCCTSTVKTKKVTPFPMSCDLQGDCACRDPQAQEHSRKDLRGYSHG
modifications: glycosylation sites assigned in the density (positions not given)
notes: pregnancy-associated plasma protein A, human, full-length mature PAPP-A, Arg1-Gly1547; numbers count on: the mature protein; source: purified from pregnant human plasma as the PAPP-A·proMBP complex (PEG6000, SOURCE-15Q, MonoS, Superose-6)
B2: proform of eosinophil major basic protein (proMBP), endogenous, from pregnant human plasma (natural protein, human (endogenous in pregnant plasma), UniProt P13727 17-222, looked up)
chain: LHLRSETSTFETPLGAKTLPEDEETPEQEMEETPCRELEEEEEWGSGSEDASKKDGAVESISVPDMVDKNLTCPEEEDTVKVVGIPGCQTCRYLLVRSLQTFSQAWFTCRRCYRGNLVSIHNFNINYRIQCSVSALNQGQVWIGGRITGSGRCRRFQWVDGSRWNFAYWAAHQPWSRGGHCVALCTRGGHWRRAHCLRRLPFICSY
notes: proform of eosinophil major basic protein, human, encoded by PRG2; only residues 88-222 traced in the map, residues 1-87 invisible; Secreted proform; the signal peptide should be absent (surmise); Model built on PDB 1H8U; also called PM; PRG2; source: purified from pregnant human plasma as the PAPP-A·proMBP complex (PEG6000, SOURCE-15Q, MonoS, Superose-6)
B3: recombinant proMBP (modulator protein) (natural protein, UniProt P13727 17-222, looked up)
chain: B2 chain
notes: proform of eosinophil major basic protein, encoded by PRG2; construct not described; source: co-expressed with PAPP-A for the cleavage assay

Legend:
[1] = target: the molecule itself; experiment: cryo-EM structure; PAPP-A·proMBP complex purified from pregnant human plasma, 0.2 mg/mL, in PBS pH 7.4; 2:2 map with C2 symmetry and half map after symmetry expansion
[2] = target: B1; experiment: as above; conditions: both partners purified
[3] = target: purified recombinant PAPP-A free of STC2 (apo PAPP-A) (human, UniProt Q13219 82-1627, fluorescently labeled with Protein Labeling Kit RED-NHS (in MST)); experiment: MST; RED-NHS labeled PAPP-A (24 nM, mixed with an equal volume of ligand), ligand serially diluted; PBS with 0.05% Tween-20, room temperature, 30 min; 1:1 binding mode; n = 3; conditions: both partners purified

B1
stoichiometry N [1]: 2

B2
binding result [2]: binds

B3
Kd [3]: ~6.15 µM
